A word on the Kd: it is the equilibrium constant for the complex coming apart. A high value points to a looser complex.

B1: VSTB70 (antibody, V domains shown)
VH: EVQLVQSGAEVKKPGATVKISCKVSGYTFSNYWIEWVQQAPGKGLEWMGEILPGSGNVHYNEKFKGRVTITADTSTDTAYMELSSLRSEDTAVYYCATPPHYYGYDYYDVNYWGQGTLVTVSS
VL: DVVMTQSPLSLPVTLGQPASISCKSSQSLLDSDGKTYLNWFQQRPGQSPRRLIYLVSELDSGVPDRFSGSGSGTDFTLKISRVEAEDVGVYYCWQGTHFPQTFGQGTKLEIKR
B2: INX908 | VSTB92 (antibody, V domains shown)
VH: QVQLVQSGAEVKKPGASVKVSCKASGYTFANYLIGWVRQAPGQRLEWMGDIYPGGGFISYNEKFKGRVTITRDTSASTAYMELSSLRSEDTAVYYCARRFDYGGYFFDYWGQGTLVTVSS
VL: DIVMTQSPLSLPVTPGEPASISCRSSQSIVHSNGNIYLEWYLQKPGQSPQLLIYKVSNRFSGVPDRFSGSGSGTDFTLKISRVEAEDVGVYYCFQGSHVPWTFGQGTKLEIK
notes: INX name = the VSTB variable regions with human IgG2 constant regions; also called INX908 parental
B3: VSTB78 (antibody, V domains shown)
VH: QVQLVQSGAEVKKPGASVKVSCKASGYTFTNYWMHWVRQAPGQGLEWMGYINPSSGYTEYNQKFKDRVTMTRDTSTSTVYMELSSLRSEDTAVYYCARDGGSVLFGYWGQGTTVTVSS
VL: DIVMTQSPDSLAVSLGERATINCKSSQSLLNSGIRKNYLAWYQQKPGQPPKLLIYSASTRESGVPDRFSGSGSGTDFTLTISSLQAEDVAVYYCKQSYNLYTFGQGTKLEIKR
B4: INX907 | VSTB66 (antibody, V domains shown)
VH: QVQLVQSGAEVKKPGASVKVSCKASGYPFTGYFMHWVRQAPGQGLEWMGRINPYNGGTVYNQNFNDRVTMTRDTSTSTVYMELSSLRSEDTAVYYCARWTFDGLFMDYWGQGTTVTVSS
VL: DVVMTQSPLSLPVTLGQPASISCRASENVDKYGISFMNWFQQRPGQSPRRLIYATSNQGSGVPDRFSGSGSGTDFTLKISRVEAEDVGVYYCQQSKEDPYTFGQGTKLEIK
notes: INX name = the VSTB variable regions with human IgG2 constant regions
B5: VSTB65 (antibody, V domains shown)
VH: QVQLVQSGAEVKKPGASVKVSCKASGYTFTSYWIHWVRQAPGQGLEWMGEINPSNGLTNYNEKFRNRVTMTRDTSTSTVYMELSSLRSEDTAVYYCARSYDYDGDYYAMDYWGQGTLVTVSS
VL: DIVMTQSPLSLPVTPGEPASISCRSTQSIVHSNGNTYLEWYLQKPGQSPQLLIYKVSNRFSGVPDRFSGSGSGTDFTLKISRVEAEDVGVYYCFQASHVPWTFGQGTKLEIKR
B6: VSTB59 (antibody, V domains shown)
VH: QVQLVQSGAEVKKPGASVKVSCKASGYTFTDYWMHWVRQAPGQGLEWMGAIETSLNYPSYNQKFKGRVTMTRDTSTSTVYMELSSLRSEDTAVYYCARWGIYGNPWFAYWGRGTLVTVSS
VL: DIVMTQTPLSLSVTPGQPASISCRASESVDSYVNSFVHWYLQKPGQPPQLLIYRASNLESGVPDRFSGSGSGTDFTLKISRVEAEDVGVYYCQQSNEDPYTFGQGTKLEIKR
B7: VSTB81 (antibody, V domains shown)
VH: QVTLKESGPALVKPTQTLTLTCTFSGFSLSTSGMGVSWIRQPPGKALEWLAHIYWDDDKRYNPSLKSRLTISKDTSKNQVVLTMTNMDPVDTATYYCARRPDYFGSSYVDWGQGTTVTVSS
VL: DIVMTQTPLSLSVTPGQPASISCRASESVDTYGNSFMHWYLQKPGQPPQLLIYLASNLDFGVPDRFSGSGSGTDFTLKISRVEAEDVGVYYCQQNNEDPWTFGQGTKLEIKR
B8: VSTB60 (antibody, V domains shown)
VH: QVQLVQSGSELKKPGASVKVSCKASGYTFTNYGMTWVRQAPGQGLEWMGWINTYTGESTYADDFKGRFVFSLDTSVSTAYLQICSLKAEDTAVYYCARDYYGIYVSAYWGQGTLVTVSS
VL: DIVMTQTPLSLSVTPGQPASISCRASESVDNYANSFMHWYLQKPGQSPQLLIYRASNLESGVPDRFSGSGSGTDFTLKISRVEAEDVGVYYCQQSHEDPYTFGQGTKLEIKR
B9: VSTB74 (antibody, V domains shown)
VH: QMQLVQSGPEVKKPGTSVKVSCKASGYIFTDYNIDWVRQARGQRLEWIGDINPKYDSTRYNQKFKGRVTITRDMSTSTAYMELSSLRSEDTAVYYCAADGSSAMDYWGQGTTVTVSS
VL: DIVMTQSPDSLAVSLGERATINCKSSQSLLNSGHQKNYLAWYQQKPGQPPKLLIYGASTRESGVPDRFSGSGSGTDFTLTISSLQAEDVAVYYCQNDHRYPLTFGQGTKLEIKR
B10: VSTB51 (antibody, V domains shown)
VH: EVQLVESGGGLVQPGGSLRLSCAASGFTFSSYTMSWVRQAPGKGLEWVATISNSGSYTYYLDSVKGRFTISRDNAKNSLYLQMNSLRAEDTAVYYCARDTVLSPFDYWGQGTTVTVSS
VL: EIVLTQSPDFQSVTPKEKVTITCSATSSISYMHWYQQKPDQSPKLLIKDTSELASGVPSRFSGSGSGTDFTLTINSLEAEDAATYYCHQRSSFTFGQGTKLEIKR
B11: INX900 | VSTB50 (antibody, V domains shown)
VH: QVQLVQSGSELKKPGASVKVSCKASGYTFTNYGLNWVRQAPGQGLEWMGWINPYTGEPTYADDFKGRFVFSLDTSVSTAYLQICSLKAEDTAVYYCAREGYGNYIFPYWGQGTLVTVSS
VL: DIVMTQTPLSLSVTPGQPASISCRASESVDTYANSLMHWYLQKPGQPPQLLIYRASNLESGVPDRFSGSGSGTDFTLKISRVEAEDVGVYYCQQTNEDPRTFGQGTKLEIK
notes: as for B4
B12: VSTB49 (antibody, V domains shown)
VH: QVQLVQSGAEVKKPGASVKVSCKASGYTFPSHTIHWVRQAPGQRLEWMGSIYPFIDSTIYNQKFKDRVTITRDTSASTAYMELSSLRSEDTAVYYCARGIRGYTMDYWGQGTLVTVSS
VL: DVVMTQSPLSLPVTLGQPASISCRASESVDNYGLSFMNWFQQRPGQSPRRLIYGASNQGSGVPDRFSGSGSGTDFTLKISRVEAEDVGVYYCQQSKEVPYTFGQGTKLEIKR
B13: INX901 | VSTB56 (antibody, V domains shown)
VH: QVQLVQSGAEVKKPGASVKVSCKASGYTFTSYWLHWVRQAPGQGLEWMGYIIPNTLHTDYNQKFKDRVTMTRDTSTSTVYMELSSLRSEDTAVYYCARLDGDYDYALDYWGQGTLVTVSS
VL: DIVMTQTPLSLSVTPGQPASISCRASESVEYYGTSFMQWYLQKPGQPPQLLIYTASNVESGVPDRFSGSGSGTDFTLKISRVEAEDVGVYYCQQSRKVPYTFGQGTKLEIK
notes: INX name = the VSTB variable regions with native human IgG2 constant regions; also called INX901 parental
B14: INX906 | VSTB54 (antibody, V domains shown)
VH: QVQLVQSGAEVKKPGASVKVSCKASGYNIKDTYMHWVRQAPGQGLEWMGRIDPTHGYVIYDPKFQGRVTMTRDTSTSTVYMELSSLRSEDTAVYYCARDRFDPYWFLDVWGQGTLVTVSS
VL: DIVMTQTPLSLSVTPGQPASISCRASESVEYYGTSLMQWYLQKPGQSPQLLIYDAFNVESGVPDRFSGSGSGTDFTLKISRVEAEDVGVYYCQQSRKVPWTFGQGTKLEIK
notes: as for B4
B15: INX902 | VSTB63 (antibody, V domains shown)
VH: QVQLQESGPGLVKPSETLSLTCAVSGFSITSDFAWNWIRQPPGKGLEWIGYITYSGFTNYNPSLESRVTISVDTSKNQFSLKLSSVTAADTAVYYCARQEYGNYVWYFDVWGQGTLVTVSS
VL: DIVMTQTPLSLSVTPGQPASISCRASESVEYYGTSLLQWYLQKPGQPPQLLIYAASNVESGVPDRFSGSGSGTDFTLKISRVEAEDVGVYYCQQSRKVPWTFGQGTKLEIK
notes: as for B4

The target of this assay is T1, human VISTA (human, UniProt Q9H7M9 33-194, limits assumed).
T1 construct: The ELISA text says only recombinant VISTA; also called recombinant VISTA
The assay can be described thus: method not stated (Table 1, column Kd, M).
Turning to B1, the Kd turned out to be 2.23 nM.

Molecule B2 displayed a Kd of 0.0934 nM.

For the molecule B3, the Kd is 1.13 nM.

B4 returned a Kd of 0.0806 nM.

For B5, binding was put at a Kd of 1.08 nM.

On to B6, for which the Kd stood at 0.106 nM.

The molecule B7 returned a Kd of 0.312 nM. Compared with the last molecule, the Kd is about 2.9-fold higher.

The molecule B8 had a Kd of 0.356 nM.

Regarding B9, binding was put at a Kd of 0.562 nM.

Molecule B10 had a Kd of 0.104 nM.

B11: the equilibrium dissociation constant (Kd) is 0.632 nM.

Molecule B12 displayed a Kd of 0.507 nM. The Kd values of the last two molecules are within 1.5-fold of each other.

On to B13, for which the Kd was 0.0235 nM.

Regarding B14, binding was put at a Kd of 0.0253 nM. The Kd values of the last two molecules are within 1.5-fold of each other.

For the molecule B15, the Kd was 0.83 nM. This Kd is about 33-fold higher than that of the molecule before.

These data come from patent US20210017281A1 (IMMUNEXT, published 2021).
